# Results: PMC12080921
# Target: biotinylated bovine FI
# Assay: biolayer interferometry
# Settings: n = 3; parent: 27 ± 3 nM
row,Substance,Kd
1,PmSLP-1^15-318 D121A,117 nM
2,PmSLP-1^15-318 D124R,53 nM
3,PmSLP-1^15-318 D210A,272 nM
4,PmSLP-1^15-318 E132R,28 nM
5,PmSLP-1^15-318 I133D,43 nM
6,PmSLP-1^15-318 K236E,32 nM
7,PmSLP-1^15-318 L127D,85 nM
8,PmSLP-1^15-318 R167A,107 nM

# Target: biotinylated bovine FI (bovine)
# Assay: BLI; Octet RED96; biotinylated bovine FI (150 nM) on streptavidin biosensors; PmSLP-1 as analyte at 0, 5, 16, 50, 160, 500, 1600 nM; 30 °C; PBS pH 7.4, 0.01% Tween 20; steady-state analysis, one-site model
# Settings: not given
row,Substance,Kd
1,PmSLP-1^15-318 (domain or fragment),27 nM
